Test [1] has as its target T1, AIP-1 (S. aureus I native cyclic signaling peptide) (Staphylococcus aureus). Description: competition ELISA on AP4-BSA.
For test [2], the target named is T2, AIP-4 (S. aureus IV native cyclic signaling peptide) (Staphylococcus aureus). Description: competition ELISA on AP4-BSA.
The target of test [3] is T2, AIP-4 (S. aureus IV native cyclic …). The test is described as follows: competition ELISA on AP4-BSA. The source holds these as a separate data set.
For test [4] the target is unchanged. The test is described as follows: cell-based or functional assay.
For test [5] the target is unchanged. Description: competition ELISA on AP4-BSA, tested 5 different times.
Test [6] addresses T1, AIP-1 (S. aureus I native cyclic …). The test is described as follows: competition ELISA on AP1-BSA.

This note sets out measurements from US9394371.

Bounds are passed on as bounds.

B1: AP4-24H11 (antibody, V domains shown)
VH: EVKPQESGPGLVKPSQSLSLTCTVTGYSITSNYAWNWIRQFPGNKLEWMGFISSYGTTTYNPSLKSRFSITRDTSKNQFFLQLHSVTIEDTGTYFCTREGDYWGQGTTLTVSS
VL: DIVMTQATLSLPVSLGDQASISCRSSQRLVPSNGNIYLHWFLQKPGQSPKLLIYKLSSRFSGVPDRFSGSGSGTDFTLKISRVESEDLGIYFCSQTTHVPYTFGGGTKLEIK
For B1, the Kd in test [1] turned out to be 5000 nM. In test [2], this molecule returned a dissociation constant (Kd) of 98 nM. This molecule also showed a Kd in test [3] of 90 nM. Further, in test [4], the Real-Time PCR fold-change of eta mRNA in RN4850 was -8.1 fold, the Real-Time PCR fold-change of hla mRNA in RN4850 was -5.2 fold, the Real-Time PCR fold-change of rnaIII mRNA in RN4850 was -77 fold and the Real-Time PCR fold-change of spa mRNA in RN4850 came out at 5.7 fold. For the same molecule, the rnaIII transcriptional level in S. aureus RN4850 during stationary growth phase (RT-PCR) in test [4] is greater than 50 fold.

B2: AP4-29E10 (antibody, V domains shown)
VH: EVQLQQSGPELEKPGASVKISCKASGHSFTGYNMNWVKQSNDKSLEWIGNIAPYYGVTAYNQKFKGKATLTGDKSSSTAYMQLKSLASEDSAVYYCVLDTSGYASWGQGTLVTVSA
VL: DIVMTQATASLTVSLGQRATISCRASKSVSTSGYSYMHWYQQKPGQPPKLLIYLASNLESGVPARFSGSGSGTDFTLNIHPVEEEDAATYYCQHSREVPYTFGGGTKLELK
As for B2, the dissociation constant Kd in test [1] was 3000 nM; in test [3], 24 nM; in test [5] it was 2 to 110 nM.

B3: AP1-15B4 (antibody, V domains shown)
VH: EVHLVESGGDLVKPGGSLKLSCAASGFAFSDFAMSWVRQTPEKRLEWVAIIKSDDSYTYYPDSVRDRFTISRDNARNTLYLQMTSLRSEDTALYYCTKIYDAYFYAMDYWGQGTSVTVSS
VL: DIVRTQSPLSLSVSLGDQASISCRSSQSLLHSNGNTYLHWYLQKPGQSPKLLIYKVSNRFSGVPDRFSGSGSGTDFTLKISILEAEDLGIYFCSQSTHFPTFGGGTKLEIK
Consider B3, for which the Kd in test [6] worked out at 800 nM.
